These results are taken from US20200299341A1 (SOCIETE DE COMMERCIALISATION DES PRODUITS DE LA RECHERCHE …, published 2020).

The data set deals with the molecule itself. Nature of the data set: CD thermal denaturation at 222 nm, 16 uM, homodimer. The procedure: 16 μM of Mad1*DN, Mad1*DN-KR and/or Max* diluted in Phosphate buffer (50 mM) containing 50 mM KCl and 0.5 mM TCEP were subjected to temperature increase as the dichroic signal corresponding to α-Helical signal (222 nm) was recorded. Individual denaturation curves for each protein was recorded. To compare the heterodimeric complex formation, Mad1*DN or Mad1*DN-KR were mixed with Max* at equimolar concentration (16 μM each) in the same buffer adjusted at 1 mM TCEP. The experimental denaturation curves of the complexes (Mad1*DN/Max* or Mad1DN-KR/Max*) were compared to the summation of the individual curves of each homodimer which correspond to an absence of interaction between the two proteins in solution.

B1: Mad1*DN-KR (Mad1 b-HLH-LZ domain with C75S, E77K, G81R, C111S, D112N) (other)
chain: MSRSTHNEMEKNRRAHLRLSLKKLKRLVPLGPESSRHTTLSLLTKAKLHIKKLEDSNRKAVHQVDQLQREQRHLKRQLEKLGGSGC
notes: Engineered variant of the human Mad1 b-HLH-LZ domain; It forms a homodimer alone and a heterodimer with Max*; also called KR analog of Mad1*DN
For the protein B1, the binding result is recorded as “binds”.
